Measured values taken from patent US10010626B2, “Molecular constructs with targeting and effector moieties” (Immunwork Inc., priority 2015, dated 2018).

Key:
[1] = target: human TNF-α (Homo sapiens, UniProt P01375); test: ELISA analysis of purified scFv of adalimumab; type: binding; details: compared with Expi-293F-produced scFv of adalimumab
Protocol: The expression plasmid was then transformed into Pichia pastoris by electroporation. To screen for high yield clones, ELISA was performed to measure the expression levels of scFv of adalimumab. Out of 480 transformants, five were selected for further protein induction and examination by SDS-PAGE. The clone scFv_1-A2 was selected for subsequent large-scale fermentation.
The high-yield clone scFv_1-A2 was inoculated in 100 mL of buffered glycerol-complex medium (BMGY, containing 1% yeast extract, 2% peptone, 100 mM K3PO4, 1.34 YNB, 0.4 mg/L biotin and 1% glycerol, pH 6.0) and cultured at 30° C., 200 rpm for 24 hours. On the next day, the culture was changed to a fermentation condition maintaining at 30° C., 30% of dissolved oxygen and pH 6.0. After being fermented for 24 hours, nitrogen source (YE, peptone) and methanol (0.5%, v/v) was added to induce protein expression. The culture supernatant was harvested for protein purification.

[2] = target: T1, CD20 (Homo sapiens, UniProt P11836); test: Apoptosis by anti-CD20 Fab in a 4-arm PEG linker; type: cell-based; details: PEG arm of about 1,000-1,200 daltons (about 25-30 ethylene glycol units)
T1 sequence (P11836 1-297): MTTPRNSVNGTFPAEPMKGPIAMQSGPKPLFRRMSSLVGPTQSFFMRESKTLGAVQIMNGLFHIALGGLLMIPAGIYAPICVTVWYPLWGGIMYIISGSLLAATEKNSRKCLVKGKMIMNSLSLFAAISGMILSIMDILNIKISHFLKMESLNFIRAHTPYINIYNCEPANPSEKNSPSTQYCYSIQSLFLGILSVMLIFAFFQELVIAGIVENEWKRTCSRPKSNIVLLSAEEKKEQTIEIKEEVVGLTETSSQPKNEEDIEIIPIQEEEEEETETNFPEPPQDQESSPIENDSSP

Chain of human TNF-α (P01375 77-233 limits assumed): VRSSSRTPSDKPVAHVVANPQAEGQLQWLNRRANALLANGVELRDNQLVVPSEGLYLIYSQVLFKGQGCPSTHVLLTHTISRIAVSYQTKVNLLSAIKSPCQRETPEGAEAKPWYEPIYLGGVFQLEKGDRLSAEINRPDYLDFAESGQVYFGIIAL

Substance | binding to human TNF-α (ELISA) [1] | causing apoptosis [2]
yeast-produced scFv of adalimumab: scFv of adalimumab produced by Pichia pastoris clone scFv_1-A2 | bound to human TNF-α equally well as Expi-293F-produced scFv of adalimumab | 
anti-CD20 (rituximab) Fab in a 4-arm PEG linker: anti-CD20 (rituximab) Fab in a 4-arm PEG linker, PEG arm of about 1,000-1,200 daltons |  | effective in causing apoptosis
